Experimental findings from patent US20210246166A1 (Bayer, published 2021) are described below.

Bridge positions count the residues as written; N and C are the ends. Square brackets hold non-standard residues; d marks the D form. Ends that are not written are not given here. Oic = O=C(O)[C@@H]1C[C@@H]2CCCC[C@@H]2N1; Pen = CC(C)(S)[C@H](N)C(=O)O; αMeP = C[C@@]1(C(=O)O)CCCN1; Sar = CNCC(=O)O

T1: Recombinant human MASP1 enzyme (fragment corresponding to amino acids 297-699, C-terminal His Tag) (human, UniProt P48740 297-699)
T1 sequence: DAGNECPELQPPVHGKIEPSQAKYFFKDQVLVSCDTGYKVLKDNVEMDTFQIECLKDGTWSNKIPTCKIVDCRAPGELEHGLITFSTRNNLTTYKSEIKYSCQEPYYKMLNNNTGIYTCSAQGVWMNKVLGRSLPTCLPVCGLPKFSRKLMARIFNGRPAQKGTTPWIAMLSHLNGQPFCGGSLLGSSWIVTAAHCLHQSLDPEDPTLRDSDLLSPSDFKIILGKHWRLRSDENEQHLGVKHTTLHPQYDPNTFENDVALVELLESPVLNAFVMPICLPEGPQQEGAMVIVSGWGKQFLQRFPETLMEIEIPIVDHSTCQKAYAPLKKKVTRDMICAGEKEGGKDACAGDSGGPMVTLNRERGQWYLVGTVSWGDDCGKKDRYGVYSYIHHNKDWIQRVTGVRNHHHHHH

B1: ((N-Me)G)-IC+TRSLPPIC+IPD-OH (peptide)
peptide: [Sar]ICTRSLPPICIPD-OH
modifications: disulfide 3-11; N-terminus assumed
SMILES: CC[C@H](C)[C@H](NC(=O)CNC)C(=O)N[C@H]1CSSC[C@@H](C(=O)N[C@H](C(=O)N2CCC[C@H]2C(=O)N[C@@H](CC(=O)O)C(=O)O)[C@@H](C)CC)NC(=O)[C@H]([C@@H](C)CC)NC(=O)[C@@H]2CCCN2C(=O)[C@@H]2CCCN2C(=O)[C@H](CC(C)C)NC(=O)[C@H](CO)NC(=O)[C@H](CCCNC(=N)N)NC(=O)[C@H]([C@@H](C)O)NC1=O
B2: IC+SRSLP-(Oic)-I-(Pen)+IPD-NH2 (peptide)
peptide: ICSRSLP[Oic]I[Pen]IPD-NH2
modifications: disulfide 2-10; N-terminus assumed
SMILES: CC[C@H](C)[C@H](N)C(=O)N[C@H]1CSSC(C)(C)[C@@H](C(=O)N[C@H](C(=O)N2CCC[C@H]2C(=O)N[C@@H](CC(=O)O)C(N)=O)[C@@H](C)CC)NC(=O)[C@H]([C@@H](C)CC)NC(=O)[C@@H]2C[C@@H]3CCCC[C@@H]3N2C(=O)[C@@H]2CCCN2C(=O)[C@H](CC(C)C)NC(=O)[C@H](CO)NC(=O)[C@H](CCCNC(=N)N)NC(=O)[C@H](CO)NC1=O
B3: ((N-Me)G)-IC+SRSLPP-IC+I-((2-Me)P)-D-OH (peptide)
peptide: [Sar]ICSRSLPPICI[αMeP]D-OH
modifications: disulfide 3-11; N-terminus assumed
SMILES: CC[C@H](C)[C@H](NC(=O)CNC)C(=O)N[C@H]1CSSC[C@@H](C(=O)N[C@H](C(=O)N2CCC[C@@]2(C)C(=O)N[C@@H](CC(=O)O)C(=O)O)[C@@H](C)CC)NC(=O)[C@H]([C@@H](C)CC)NC(=O)[C@@H]2CCCN2C(=O)[C@@H]2CCCN2C(=O)[C@H](CC(C)C)NC(=O)[C@H](CO)NC(=O)[C@H](CCCNC(=N)N)NC(=O)[C@H](CO)NC1=O
B4: FIC+SRSLP-(Oic)-I-(Pen)+IP-NH2 (peptide)
peptide: FICSRSLP[Oic]I[Pen]IP-NH2
modifications: disulfide 3-11; N-terminus assumed
SMILES: CC[C@H](C)[C@H](NC(=O)[C@@H](N)Cc1ccccc1)C(=O)N[C@H]1CSSC(C)(C)[C@@H](C(=O)N[C@H](C(=O)N2CCC[C@H]2C(N)=O)[C@@H](C)CC)NC(=O)[C@H]([C@@H](C)CC)NC(=O)[C@@H]2C[C@@H]3CCCC[C@@H]3N2C(=O)[C@@H]2CCCN2C(=O)[C@H](CC(C)C)NC(=O)[C@H](CO)NC(=O)[C@H](CCCNC(=N)N)NC(=O)[C@H](CO)NC1=O
B5: AIC+SRSLP-(Oic)-IC+I-OH (peptide)
peptide: AICSRSLP[Oic]ICI-OH
modifications: disulfide 3-11; N-terminus assumed
SMILES: CC[C@H](C)[C@H](NC(=O)[C@@H]1CSSC[C@H](NC(=O)[C@@H](NC(=O)[C@H](C)N)[C@@H](C)CC)C(=O)N[C@@H](CO)C(=O)N[C@@H](CCCNC(=N)N)C(=O)N[C@@H](CO)C(=O)N[C@@H](CC(C)C)C(=O)N2CCC[C@H]2C(=O)N2[C@@H](C[C@@H]3CCCC[C@@H]32)C(=O)N[C@@H]([C@@H](C)CC)C(=O)N1)C(=O)O

In one assay the target is T1, Recombinant human MASP1 enzyme …. Nature of the assay: cell-based or functional assay.
For the molecule B1, the “human MASP1 IC50” value was found to be 16 nM.

Take B2: the “human MASP1 IC50” value was determined as 17 nM.

On to B3, for which the “human MASP1 IC50” value came to 16 nM.

Take B4: the “human MASP1 IC50” value was found to be 16 nM.

Consider {Tetrahydro‑2H‑pyran‑3‑ylacetic acid}-ICSRSLP[Oic]I[Pen]IP-NH2 (disulfide 2-10) [(Tetrahydro-2H-pyran-3-ylacetic acid)-IC+SRSLP-(Oic)-I-(Pen)+IP-NH2], for which the “human MASP1 IC50” value stood at 17 nM.

For the molecule B5, the “human MASP1 IC50” value came to 16 nM.

The target of the next assay is Recombinant human MASP2 enzyme (fragment corresponding to amino acids 297-686, C-terminal His Tag) (human, UniProt O00187 297-686). Nature of the assay: cell-based or functional assay.
Sequence of Recombinant human MASP2 enzyme (fragment corresponding to amino acids 297-686, C-terminal His Tag) (O00187 other isoform, or with tags, fused parts or gaps limits assumed): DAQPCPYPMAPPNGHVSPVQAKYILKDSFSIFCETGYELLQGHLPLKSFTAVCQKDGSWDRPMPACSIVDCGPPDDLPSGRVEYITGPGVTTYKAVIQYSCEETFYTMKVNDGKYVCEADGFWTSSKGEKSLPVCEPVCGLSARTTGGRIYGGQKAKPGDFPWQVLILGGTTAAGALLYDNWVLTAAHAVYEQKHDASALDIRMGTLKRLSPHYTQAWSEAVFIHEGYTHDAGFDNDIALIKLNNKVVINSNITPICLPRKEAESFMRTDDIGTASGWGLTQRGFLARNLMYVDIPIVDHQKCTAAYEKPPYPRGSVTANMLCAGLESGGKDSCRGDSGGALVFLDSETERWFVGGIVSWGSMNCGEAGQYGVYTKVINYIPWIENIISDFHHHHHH
Consider B1, for which the “human MASP2 IC50” value was determined as 6500 nM.

With B2, the “human MASP2 IC50” value amounted to 603 nM.

With B3, the “human MASP2 IC50” value came to 160 nM.

For B4, the “human MASP2 IC50” value was determined as 81 nM.

As to {Tetrahydro‑2H‑pyran‑3‑ylacetic acid}-ICSRSLP[Oic]I[Pen]IP-NH2 (disulfide 2-10) [(Tetrahydro-2H-pyran-3-ylacetic acid)-IC+SRSLP-(Oic)-I-(Pen)+IP-NH2], the “human MASP2 IC50” value was 12 nM.

In the case of B5, the “human MASP2 IC50” value was determined as 930 nM.
